# Results from the NTF2 design screens of Basanta et al. (2020).
# Assay: protease stability score; higher = more stable; yeast display proteolysis, trypsin and chymotrypsin;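 also: relative to predicted unfolded state with 0 unfolded-like and 1 meaning tenfold more protease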
row,Sequence,protease stability score
1,SEDHDTDRHIMDLILRDVFTGDEEEFTRLADPNVKHIDENHFSVGWENVLEMLRFWEDEARMTDIKIHDLEIQGDKIVSHVHIDGEVNGKRRELEVIIYILKVDGKWHLEYFEVR,2.2
2,HEDEKWMKHMLEMLIRSILTGDEETLHKLADPHVRLEINGQEYWGREQFTHAITQFIRHIRIDSIHVHDYHIQGEKVDFDMRSKFTINGQVDTSRLRVFILKVDGRWVVEEVIIR,2.27
3,SETEEEARKMIELLVEAWLTGDEHTLERMLDPHVKIIIDGRELHGWKVLAERIKHLRYEHFEFELHSVETQGDKIIIRGIVRSDLRVGDKEEHTHLEVIIIITKVNGRWVVHSIEIR,1.68
4,SEDEKHSEHAIHLIEHSMHTGDEKTLRDNIDPHVRVHINGRDVIGRELWMEILRRDLEELGVERVDFKTHHVEVFNGRMNIDGILTQGDKRVKVQIHYTKINGRWILEELIIR,0.841
5,DEDEEQAEKMIKIWIHDMATGNEESLVRLADPRVRSEVDGVQLHGRESLRKFLHDEWRDLGVDRIQVHVRRYHVFDGRLHLDGEVIVNGQDKTMHIVLIKVDGRWHLKSVHFR,2.14
6,DDEHHDAVRVIEEFVTSVLTGNWEILKELLDPNVKFEIDGREIWGREFVNREIEEIRIRSRMEVRSVRFQGEKMEVDTEYNVDLNIGDKRFHYRRSTRVILEKYDGRWRIQSFHFE,0.284
7,DKELHIAYHLLKVFEHTLATGDEETSERLLDPDVRFWINGVDFHGWELFSTFMKHARFSFRDSRFHDNRLVNGQINLVGRVRLEIDVDGRRHHTETDVRVVILKVDGRWVIHSMEFK,1.46
8,SEDDEEVRIALDIQRELFRTGDWRSIEEFLDPNVRVHVGDKEIHGMEELLRYYTHIMNHLGAKHWHVTEYTSIGDFVHIDGEFIQGDKTFHLKIHLLKFNGRWIIHSRIID,1.22
9,DEEEEQTHHMFKRILEVLRTGDERMLLDLADPHVRLEVGDKHMIGMDSLVHFNARIKNMRIRLRSIDFQGDYAHINTELEFDGRNHHITIVVLKVDGKWIIRSQHVK,1.46
10,DEDEEIAVKSYKKIVEDFFTGDEDSARRNADPDVLLRVGDKELHGWKHMTSWVHELRIHRIDIREIRVIGDKMFLHGEVDSEIDGKRLEFHLKLRMEKVDGRWIIRKIEIK,1.49
11,SEEERDVKEVLKLIFEHFLTGDWDWLSEMMDPHARSDINGVERHGRDDLKEMYEAIIRKLGADHIRVDTVRVDLFDGRLIVEIHTRNHVGDKEFRVINIFIMRKINGRWHVESVLLHIE,1.56
12,DEDHHEAEEWADLITHFLKTGDEKFLRDLADPNTRFKYGDFHIHGREQLTNFLRHYVERVKGIRSELKDKHVDVQGEKVRVELDLVLRIGDKTIHITIIIINLKVDGKWYVHTLVVEHR,1.18
13,SEDDEMLKLFFELVHRFHLTGDETNHLNNMDPHARMNAENWRRHGRHALEQLRTRFDHIDHVHLDHYETFDGRLILHVTVDGQFDGVRDRNTLHIVMKKINGRWIMEELRIQ,1.23
14,QEDRERAERIINELMENELTGDEDRLRELADPRVRVEYDGQEHIGMELRSTWIKEMRFDHIHVDIDEFEFQGNKIHIKARFHIDVNINGRKRRYTVETFLVMKKINGVWFIKDIVFH,1.36
15,SEEEERLRTIAEVLLHLLLTGDEEHLERLMDPHARYEQGDKHAIGREEVSHLFRRLLEHMRTREIHLHRWHSVNGVIYLDTRVIMEVNGRRIDTDTKVVVVVVDGKVRSMRNQFN,0.113
16,DEEHRDSEEMTRKFLHNFITGNEHILEDLLDPHVRTDVDGREFIGWELAFKAFREFLERLGFDHIRHRDMKLHVVGNKVTSVITNNIQVGDKEHELRIILINRKIDGKWSVTEVRIHVK,1.25
17,HEEEKQIHDIIEIIIRLLVTGNEEIHKRLADPHVRVEVGDKHFHGREEVTKFLMRIDHVQHVDHRIHRMDIIDGRADVHGDLLIDGDFDGRRTRTDIRVRWRIIKIDGRWILHSYSVL,1.24
18,SEDEEWVSLLATLILRVLLTGDEDIWKKLADPNTIHDIGEKHFHGREEIARFWMELRIKSFHVRDMDVVGDFFHIRTHMDVSIDGKDIRTDVEIHILIINGRVKRQRFEFH,0.404
19,HEEHEEAWHEIELTYHLLNTGDFDEMNRLLDPNVRIHIGDKRYHGRHELDLLITKLGVKHVRWEVKHADIQGDKVDMDTIVHITQGDKEIRRDTRIKIRKIDGKWFVTELHVT,1.28
20,DEMTEDSERAMEILVRSILTGDEKDLIELADPNVRLDVNGRDYHGWKNFIKVFKKIMDELRIKDTELKDVRNQGEKAILDTRIHGIINGREIIFESSIDHRKINGVWLIERIIIK,1.1
21,DEEERERKHIAEEFAHELETGDEERFVELADPNVRSDINGKQYHGRDRFRDWQEQWHEKVKNLRFEIERWRVIGDFVRIDVRIRIDGRRHNVEIIQVVVNGRITFLEIRVK,0.799
22,TEMEEEIRDSIELLDRAINTGDEEKLRRLFDPNTRREVGDKQHHGRELLIRQIVELGAEHHIHVDHWRLQGDKAVIDGTLNYEFNGREYRTRTTLHLVKINGRWLMHSIHLH,1.08
23,TERDMFIETYIQIFIEHVRTGDEEALARLADPNVRIRVGDKHLHGWHELRRFFHEWRVKDLDFRDYRYYDGRVEIRGFERVEFNGQERDMEVIFHFVKINGRWYLEETEIR,2.32
24,REDVEDFKRFIELEVHAHETGDEDLLRKLLDPHVRVIIDGVTIVGWKALRDLLERFDHYTIHHMHIEDLRIQGDKIIVDLRLDLIFNYNGRHLRVDSHARIIMIKYNGRWYNHSIEFE,2.12
25,DEEKKEILEIARRVIESLLTGDWEEDHELADPNVLYIQGDKEVHGMETTWRIIFELRHQIKGMTEHIHIRRVEIVNGVAHLDTELRLNVNGREVTHETHVHIFLYNGRVKRIEVRIK,1.48

row,Sequence,protease stability score
1,DEDEKRVEHTERFLSHSRRTGDEETLETMFDPNAKNIIDGRIFIGREFVEIWVRKFKNATEDLKVEEIRVQGNKVELVGNLFVQVGDKRYELDTRIEMTKIDGRWIIHRIEFR,1.21
2,DDEEEDYERAFKIFIDFVKTGDWRLLKELADPNVRNVIGDKEFMGRETFTKWVFDVRAQFDHVEIRIRDFEIQGNKLILYTELHLHQGDKSLTLELRIVILKVNGKWLMHSFRLQ,1.4
3,DEEEEWATEAWKLHLHHHRTGDERMIHELLDPNMRLDFDGVELHGRKLVKEFIERTLRRFDVIDEYDHSDVRIQGDKVDLIQVVRGEIDGRRTHVNQRLIMIKIDGRWVVKHVRLQ,1.23
4,REDEEHTKELLDAWQEAVETGDEDFILELFDPHVRSQVGDKERHGRHSFLELLRRLLEELGFDHVQFHITHREIQGDKITVETRLIFEYGDKRLEVQVEVEVKKINGRWYIHSVRWK,1.87
5,SEEEEILETVAKKMVDILETGDEDKLTRLADPDVRHRIDVDGRDLSYHGREEINRFMHHWKREWRIDSITVHRVHVINGQIHIDIEVRETVGDKHVIVRRELIIVIVDGRVKRVEIIFR,0.253
6,DDFDRNIEKLMKDLLHNWRTGNEDEFLRLIDPNARLTVGDYESHGREEYARVLRELLEEMRLHQVHIRHVEYFDGQADIDIREDGFINGQRIILTTRIIVVKVNGRWVVKSHVIN,0.967
7,DEEEHDLRLAVELWHRLLETGDERVEKHLIDPHVRVHFNGRDLHGREAATWTLRTMGVKVFELKRIETFNGQVNIHQHVNVDGQHYDLIIHARKIDGRWVNESMRIH,0.667
8,DEDEHTIRELFKEFIIAQVTGDFERLHELLDPHARLEIDGVILHGREQWTKFMQHLLEYLGIKHVSFHLHHLDVQGEKVKLDSRVRLFFNGVHYEKRNIIIWRKFNGRWYLEESTIE,1.48
9,SEDQEESEKFLKDLIRVILTGNEESLMKLADPHARFHIGDKTYIGWDKWVRMLSERVRDLGIRIEIRVHDFHVYNGVAENDHRHHVHFENHEYNHIMILHDDKINGKWTIRTLVIK,1.13
10,RESDEEREEFYKLLMHAYETGDERILNELMDPNVQIHQGEWHLHGRKDLRRRFKHLRIDHVDHITRDMRVVGDKIEVHGHIIVEGTVDGVRDTKSFDVHILTEKIDGQWFIKSVHIR,0.903
11,DEDEQAFRHIMELKIHNINTGDEESLRRLMDPHVRIIIGDKQFHGMEFATEVFRRLGIKYIEDFKIDDLRIQGDKLDAHVTVRGNFNGVHTFHKMRLILRKYDGRWYIEHEEIK,2.14
12,DEEEKHSEDIADLMLRWWLTGDFELLAKYADPRVRLDINGREFHGREEYEEVMKDLIRRFKNVKIEIRDYEIQGEKVHVDTRLHINGKTHTVHLTFVVIDGVIKSESIRVR,1.27
13,HEHEEELHRVFKIFLELWTTGDEESMERLLDPNARWVELQGDKELTLIGRENARNRFKEIFDLAGFKYMHLDHEDIQGEKTRFEMTVEYDGRRTRMLLKIVVINGRVKVVKLEER,1.32
14,DEDEERARHHLEEIIKTIHTGDENLYEKLVDPNAWMDINGRELHGREEVVKYWSHEAHRFGIDVIRLRHEERVGNYVHSDTDLEVNGKTIKTRLVMLKINGKWVIQSFEMH,0.75
15,REEEEEMEELVRRIIHLLKTGDEREFNRLLDPDARVDDGDWHDHGREAWNKWSEKLRRDAGHENIEFHVRHFEVINGRIIMETKVHIGDKTLDTRLIFVVINGRLTSVRLEIH,0.037
16,SEIEEEAKHVSELMVRWMETGDEKEIYKFADPHVRLEYNGREFHGRESILKHRREIIEKWGVTNIRVSPETFDVINGVVHVELILKVNGRNVIVHILIRKIDGRWRIDSESFI,1.5
17,SDEMEEYEDFMKRVLEALETGDFREIRHLFDPDVKIHIDGRDIVGRESYTEHVRKWREDLGFDHIHLKIHDVKLFDGQIHVDARLEIRIGDKRDSHNVEFRLHKVDGQWLVRRVHVH,1.6
18,DEREEHHEENARLLLEQFKTGNWDFLRSLADPNVQHNWDGRKSHGRESMVRLLIDHIRKVKGMRTEEKEVEFQGDKVILHGRVNINGREIEVIFILEVVDGRIKSLHIDFR,0.697
19,SEDHEAAHEVIREWEKVHKTGDEHIFTQLLDPHMRIEIGDKRFHGRDEAVTHFRENLTHWRIHRMEMEDVNSQGEYIIYHVQNFVRINGKVVILDLTIIILKVDGRWVIHSIHIK,1.24
20,DEEKEYAIRILREFTKYWETGDFERMKELFDPNARLEIGDKRAVGRDKVLEVLLRELHELRFKHFELREEDVIGEKKHSELIVHMEIDGVWHRRNIRVEIVVIDGKIHRMRFEQH,2.37
21,SEEDELDERLLKIMRHAFETGDEEIFMRLVDPHTRTEFNGQEVHGREHLHRWLKEILRTLGVKYVERKDIRAWDGRIHLEFEMHVNGRTLKLTVVVIFINGKLHEYSERIE,1.61
22,DDLEHQARESLDLHTEARKTGDEDQLKNLIDPHVRIEQGDKHIHGMEMFIRHWHKLGADHSEFRLKHVRVIDGRVRIDGEMIIHINGRTISIEVHFNINKINGRWIITEIHIH,1.09
23,DSDHHRAYEYAEFFIEWHETGNEDVLTELLDPHVRLIVDGQHYHGRDLIVRFLVQWRIHRFHIHDVKSIGEYIRVDTHVDMEFDGKRIITQVELVIIKINGRWRYKHISIP,1.22
24,DEDETFMREFLKELIHSLHTGDEETLLRLADPHTRVVINGRTLIGWETFDKLLKEARVHHHEIKRVRFFDGQVETDTRTDGRIDGVRVEIETTLIVKKVNGRWYMRSVIIT,0.686
25,SERDRHNEEMARHFIRLFLTGDWDDFQHLFDPNVRTHIDGRDYHGWRSTLEAVRTLEREIRIEEIRVEHVDTQGDFIHQDTKVDFNVNGQRVIRESKVHIYEVNGRIKEIEMHYH,0.486
